Measured values taken from patent US20240285757A1 (University of Pennsylvania, published 2024).

B1: 806 CAR (EGFR-specific, 4-1BBZ CAR containing an 806 scFv linked via a CD8alpha hinge and CD8a TM to (other)
VH: DVQLQESGPSLVKPSQSLSLTCTVTGYSITSDFAWNWIRQFPGNKLEWMGYISYSGNTRYNPSLKSRISITRDTSKNQFFLQLNSVTIEDTATYYCVTAGRGFPYWGQGTLVTVSA
VL: DILMTQSPSSMSVSLGDTVSITCHSSQDINSNIGWLQQRPGKSFKGLIYHGTNLDDEVPSRFSGSGSGADYSLTISSLESEDFADYYCVQYAQFPWTFGGGTKLEIKR

Experiments:
[1] = target: human CD19 on Nalm6 leukemia cells (human) (UniProt P15391); assay: cell-based or functional assay
[2] = target: EGFR on U87 (U87-MG) human glioblastoma cells (human, UniProt P00533 25-1210); assay: cell-based or functional assay

Sequence of human CD19 on Nalm6 leukemia cells (human) (P15391 20-556): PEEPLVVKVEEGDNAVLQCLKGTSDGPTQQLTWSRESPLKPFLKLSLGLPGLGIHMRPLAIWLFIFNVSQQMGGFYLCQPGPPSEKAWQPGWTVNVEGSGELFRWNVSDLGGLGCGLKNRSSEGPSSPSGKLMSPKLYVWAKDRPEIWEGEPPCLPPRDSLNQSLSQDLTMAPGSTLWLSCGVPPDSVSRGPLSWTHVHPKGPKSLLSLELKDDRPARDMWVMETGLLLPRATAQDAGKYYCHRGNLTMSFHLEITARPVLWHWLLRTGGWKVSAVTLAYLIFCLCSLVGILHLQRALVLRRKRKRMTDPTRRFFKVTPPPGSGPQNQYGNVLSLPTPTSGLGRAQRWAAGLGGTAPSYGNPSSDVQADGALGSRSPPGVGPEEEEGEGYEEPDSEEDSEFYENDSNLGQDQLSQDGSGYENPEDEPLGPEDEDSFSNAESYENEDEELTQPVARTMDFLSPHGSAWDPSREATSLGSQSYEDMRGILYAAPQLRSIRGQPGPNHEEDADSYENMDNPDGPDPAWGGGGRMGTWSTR

Molecule	CpNA functional activity in supernatant after 24 h co-culture at 10:1 E:T (cleavage-activated fluorescent NA substrate) [1]	CpNA functional activity in supernatant after 24 h co-culture with Nalm6 cells at 10:1 E:T [1]	CpNA levels/activity in supernatant after 24 h co-culture at 10:1 E:T (cleavage-activated fluorescent NA substrate) [2]
CD19-specific, 4-1BBZ CAR containing the FMC63 scFv	4.9 fold	19.5 mU/ml	
B1			2.3 fold
